Assay results published in the supplement of paper PMC11246515.
± gives the standard deviation of the averaged measurements.

Assay: total protein half-life in vivo (active degradation + dilution); higher = more stable protein
[1] = E. coli NCM3722 delta-clpP delta-lon delta-hslV, growth: N-lim chemostat, doubling time 6 h
[2] = E. coli NCM3722 delta-hslV, growth: N-lim chemostat, doubling time 6 h
[3] = E. coli NCM3722 delta-smpB, growth: N-lim chemostat, doubling time 6 h
[4] = wild type E. coli NCM3722, growth: C-lim chemostat, doubling time 3 h
[5] = wild type E. coli NCM3722, growth: C-lim chemostat, doubling time 12 h
[6] = wild type E. coli NCM3722, growth: N-lim chemostat, doubling time 6 h
[7] = wild type E. coli NCM3722, growth: N-lim chemostat, doubling time 12 h
[8] = wild type E. coli NCM3722, growth: P-lim chemostat, doubling time 6 h
[9] = wild type E. coli NCM3722, growth: P-lim chemostat, doubling time 12 h
[10] = E. coli NCM3722 delta-clpP, growth: N-lim chemostat, doubling time 6 h
[11] = E. coli NCM3722 delta-lon, growth: N-lim chemostat, doubling time 6 h
[12] = wild type E. coli NCM3722, growth: C-lim chemostat, doubling time 6 h

Row | Substance | total protein half-life in vivo [1] | total protein half-life in vivo [2] | total protein half-life in vivo [3] | total protein half-life in vivo [4] | total protein half-life in vivo [5] | total protein half-life in vivo [6] | total protein half-life in vivo [7] | total protein half-life in vivo [8] | total protein half-life in vivo [9] | total protein half-life in vivo [10] | total protein half-life in vivo [11] | total protein half-life in vivo [12]
1 | MRKITQAISAVCLLFALNSSAVALASSPSPLNPGTNVARLAEQAPIHWVSVAQIENSLAGRPPMAVGFDIDDTVLFSSPGFWRGKKTFSPESEDYLKNPVFWEKMNNGWDEFSIPKEVARQLIDMHVRRGDAIFFVTGRSPTKTETVSKTLADNFHIPATNMNPVIFAGDKPGQNTKSQWLQDKNIRIFYGDSDNDITAARDVGARGIRILRASNSTYKPLPQAGAFGEEVIVNSEY [P0AE22] | 6.66 ± 1.4 h | 6.31 ± 0.14 h | 5.83 ± 0.2 h | 3.637 ± 0.033 h | 11.7 ± 2.4 h | 5.79 ± 0.22 h | > 16 h | 6.42 ± 0.61 h | 13.2 ± 0.27 h |  |  | 
2 | MYQPDFPPVPFRSGLYPVVDSVQWIERLLDAGVRTLQLRIKDRRDEEVEADVVAAIALGRRYNARLFINDYWRLAIKHQAYGVHLGQEDLQATDLNAIRAAGLRLGVSTHDDMEIDVALAARPSYIALGHVFPTQTKQMPSAPQGLEQLARHVERLADYPTVAIGGISLARAPAVIATGVGSIAVVSAITQAADWRLATAQLLEIAGVGDE | 6.1 ± 1.1 h | 3.34 ± 0.23 h | 2.77 ± 0.045 h | 2.31 ± 0.52 h | 6.78 ± 0.74 h | 3.01 ± 0.54 h | 5.18 ± 0.5 h | 2.01 ± 0.57 h | 3.48 ± 0.66 h | 3.05 ± 0.11 h | 4.173 ± 0.028 h | 4.76 ± 0.58 h
3 | MLAISSNLSKMIIFIFAIIIIVVLCVITYLYLYKDESLVSKHYINYMAIPENDGVFTWLPDFFPHVAVDISIYTNVEDDYFFLIFP | 3.41 h | 5.43 h |  |  |  |  |  |  |  |  |  | 
4 | MKPENKLPVLDLISAEMKTVVNTLQPDLPPWPATGTIAEQRQYYTLERRFWNAGAPEMATRAYMVPTKYGQVETRLFCPQPDSPATLFYLHGGGFILGNLDTHDRIMRLLASYSQCTVIGIDYTLSPEARFPQAIEEIVAACCYFHQQAEDYQINMSRIGFAGDSAGAMLALASALWLRDKQIDCGKVAGVLLWYGLYGLRDSVTRRLLGGVWDGLTQQDLQMYEEAYLSNDADRESPYYCLFNNDLTREVPPCFIAGAEFDPLLDDSRLLYQTLAAHQQPCEFKLYPGTLHAFLHYSRMMKTADEALRDGAQFFTAQL |  |  |  | 3.18 ± 0.17 h | 8.02 ± 2.3 h |  | 11.6 h | 5.69 ± 1.1 h | 10.9 ± 1.4 h |  |  | 5.349 ± 0.029 h
5 | MPKIVILPHQDLCPDGAVLEANSGETILDAALRNGIEIEHACEKSCACTTCHCIVREGFDSLPESSEQEDDMLDKAWGLEPESRLSCQARVTDEDLVVEIPRYTINHAREH [P0A9R4] | 4.926 ± 0.026 h | 4.83 ± 0.91 h | 3.67 ± 0.56 h | 3.16 ± 0.84 h | 6.59 ± 0.084 h | 4.05 ± 0.7 h | 8.81 ± 2.2 h | 5.22 ± 0.39 h | 10.8 ± 0.6 h | 5.96 ± 1.3 h | 6.22 ± 1.6 h | 
6 | P0ABD3 |  | 6.83 ± 1.2 h | 6.17 ± 0.69 h |  | 11.4 ± 1.6 h | 5.57 ± 0.29 h | 13.5 ± 2.1 h | 5.92 ± 0.82 h | 13.2 ± 0.8 h | 5.98 ± 0.58 h | 6.67 ± 0.28 h | 6.73 ± 1.5 h
7 | MDFPQQLEACVKQANQALSRFIAPLPFQNTPVVETMQYGALLGGKRLRPFLVYATGHMFGVSTNTLDAPAAAVECIHAYSLIHDDLPAMDDDDLRRGLPTCHVKFGEANAILAGDALQTLAFSILSDADMPEVSDRDRISMISELASASGIAGMCGGQALDLDAEGKHVPLDALERIHRHKTGALIRAAVRLGALSAGDKGRRALPVLDKYAESIGLAFQVQDDILDVVGDTATLGKRQGADQQLGKSTYPALLGLEQARKKARDLIDDARQSLKQLAEQSLDTSALEALADYIIQRNK | 4.5 ± 0.14 h | 4.44 ± 0.056 h | 4.63 ± 0.38 h | 3.14 ± 0.08 h | 11.5 ± 0.9 h | 4.46 ± 0.66 h | 6.952 ± 0.057 h | 5.75 ± 0.13 h | 11.2 ± 0.6 h | 5.14 ± 0.67 h | 4.579 ± 0.024 h | 5.849 ± 0.0072 h
